In this experiment the target is rat VPAC1 receptor (rat) (UniProt P30083). The experiment in a line: cell-based or functional assay.
Sequence of rat VPAC1 receptor (rat) (P30083 31-459): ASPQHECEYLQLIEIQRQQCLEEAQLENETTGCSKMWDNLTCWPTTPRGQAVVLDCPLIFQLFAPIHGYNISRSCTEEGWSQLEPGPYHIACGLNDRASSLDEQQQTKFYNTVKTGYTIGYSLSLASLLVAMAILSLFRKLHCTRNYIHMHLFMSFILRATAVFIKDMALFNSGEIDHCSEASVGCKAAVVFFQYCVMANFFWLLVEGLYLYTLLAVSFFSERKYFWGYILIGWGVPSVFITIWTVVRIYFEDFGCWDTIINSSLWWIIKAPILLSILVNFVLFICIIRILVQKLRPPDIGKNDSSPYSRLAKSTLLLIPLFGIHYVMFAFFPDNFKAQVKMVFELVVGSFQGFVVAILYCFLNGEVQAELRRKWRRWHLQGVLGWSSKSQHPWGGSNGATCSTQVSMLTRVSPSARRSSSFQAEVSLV

The substance “pituitary adenylate cyclase-activating polypeptide PACAP-27” gave an EC50, cAMP generation (DiscoveRx) of 0.07 nM.

Regarding vasoactive intestinal peptide (VIP), the EC50, cAMP generation (DiscoveRx) came out at 0.02 nM.

The record behind these values is US20080318845A1.
